The values below come from patent CN111138536A (REYOUNG (SUZHOU) BIOPHARMACEUTICAL CO LTD, dated 2020).

For the assay, the target named is T1, 人血清白蛋白 (human, UniProt P02768 25-609).
T1 construct: also called HSA; human serum albumin
Put plainly: SPR (Biacore T200); HSA amine-coupled to CM5 chip, NB4 as analyte. Background: In SPR one partner is held on a chip, and binding of the other changes the refractive index at the surface.

B1: 单域抗体NB4 (VHH)
VHH: QVQLQESGGGSVQAGGSLRLACAASGYTYSSACMAWFRQAPGKEREKVATIYTGGTYPYYADSVKGRFTMSHDNAKNTVYLQMNSLKPEDTGMYYCAADASWGCRLSGSWGAKYNNWGQGTQVTVSS
notes: Camel-derived VHH, expressed in E. coli BL-21 from pET-22 with a C-terminal 6x His tag and purified on a nickel column; also called 抗人血清白蛋白单域抗体
What is called Kd is a measure of binding affinity in units of concentration. A high value points to a looser complex. On to B1, for which the Kd was 0.245 nM.
